The values below come from patent US20180364250A1 (COLORADO STATE UNIVERSITY RESEARCH FOUNDATION, published 2018).

Assay [1] deals with T1, Ubiquitin (free, untagged) (human, UniProt P0CG48 1-76).
T1 construct: also called free ubiquitin; unconjugated ubiquitin protein
Nature of the assay: relative fluorescence competition against 5 nM Atto532-tagged ubiquitin on 600 nM tSR.

Assay [2] has as its target T2, Nedd8 (human, UniProt Q15843 1-76).
T2 construct: also called free Nedd8; Nedd8 protein
In words: direct titration, relative fluorescence of 10 nM Alexa488 tSR.

Assay [3] concerns the target T1, Ubiquitin (free, untagged). Nature of the assay: fluorescence intensity of the Atto532-tagged sensor against free ubiquitin concentration, single-site fit.
Assay [4] addresses T2, Nedd8. Nature of the assay: fluorescence intensity, free Nedd8 titrated into Atto532-tIV.

T2 sequence (Q15843 1-76 limits assumed): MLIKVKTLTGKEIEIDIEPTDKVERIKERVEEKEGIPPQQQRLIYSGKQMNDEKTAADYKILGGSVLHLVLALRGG

B1: tSR chimeric polypeptide sensor (designed binder)
chain: MPSSHHHHHHSSGLVPRGSHMTEEEQIAYAMQMSLREAGGGSDLLCKKGCGYYGNPAWQGFCSKCWREEAHKCAAERAAAE
notes: His-tag leader, S5a^UIM, linker, Ruz; also called tSR chimeric peptide universal sensor
Consider B1, for which the binding result in assay [1] is “binds”.

B2: Alexa488-tagged tSR (designed binder)
chain: B1 chain
modifications: Alexa488 fluorophore, attachment site not stated
notes: also called Alexa488 tSR; fluorophore-tagged tSR
On to B2, for which the binding result with Nedd8 [2] is listed as “no binding”.

B3: Atto532-tagged IsoT^ZnF (S227C) (designed binder)
chain: MPSSHHHHHHSSGLVPRGSHMKQEVQAWDGEVRQVSKHAFSLKQLDNPARIPPSGWKCSKCDMRENLWLNLTDGSILCGRRYFDGCGGNNHAVEHYRETGYPLAVKLGTITPDGADVYSYDEDDMVLDPSLAEHLSHFGIDMLKMQK
modifications: Atto532 fluorophore on the Cys of S227C (the bold C of the 2nd table)
For B3, the binding result in assay [3] is reported as “binds”.

B4: Atto532-tagged tIV L1 Cys (designed binder)
chain: MGSSHHHHHHSSGLVPRGSHMKQEVQAWDGEVRQVSKHAFSLKQLDNPARIPPSGWKCSKCDMRENLWLNLTDGSILCGRRYFDGSGGNNHAVEHYRETGYPLAVKLGTITPDGADVWSYDEDDMVLDPSLAEHLSHFGIDMLKMQKGSCAAAEEAELDLKAAIQESLREA
modifications: Atto532 fluorophore on the Cys of linker 1 (the bold C of the 2nd table)
notes: Two domains: IsoT^ZnF and Vps27^UIM; also called Atto532-tIV
Usually Kd stands for the free concentration of one partner at which half of the binding sites on the other are occupied at equilibrium, for simple one-to-one binding. A higher Kd goes with weaker binding. As for B4, the Kd with Nedd8 [4] was 9.4 µM. For the same molecule, in assay [3], the binding result is “binds”.
